Values quoted from earlier work as cited in PMC7590224.

Test system: hLarp7 xRRM domain (human)
Conditions: No direct binding assays in this paper (only in vivo E. coli suppressor tRNA reporter assays, left out); conditions of the cited Kd values not given

For 7SK RNA stem-loop 4 (SL4), the Kd is given as 129 nM.
In the case of 7SK SL4 U311A, the Kd is given as 51 nM.
